Key:
BN-GP T cells = assay: IFNβ anti-proliferative activity in IL-2 stimulated cultures of BN-GP T cells; assay type: cell-based, rat; conditions: for Biological activity of IFNβ in expression supernatants: transient transfection of HEK293 cells
Method: FIG. 1. The IFNβ-NAg his-tagged fusion protein was biologically active and was purified on nickel resins. (A) To assess whether IFNβ-NAg induced class I MHC expression, thymocytes (5×10^6/ml in complete RPMI) were cultured with or without IFNβ-NAg for 2 days and then were stained with B5 (anti-MHC-I), OX18 (anti-MHC-I), R73 (anti-TCRβ), or OX81 (anti-IL4; isotype control) and were analyzed by flow cytometry. (B) To assess IFNβ-mediated anti-proliferative activity, supernatants from two independently derived IFNβ-NAg expression systems as well as supernatants from several control expression systems were added at designated titrations (x-axis) to IL-2 stimulated cultures of BN-GP T cells. (C) To assess the specificity of anti-proliferative activity, baculovirus supernatants containing IFNβ-NAg were added at designated titrations to cultures of rat (R1T, BN-GP, RsL.11T, RsL.11, or Conal.8D9) or mouse (CTLL) T cells. Proliferative assays (B & C) were pulsed with [^3H]thymidine on the second day of a 3-day culture. (D) Shown is a representative SDS-PAGE analysis of purified IFNβ-NAg.
(§1) FIG. 2. Structure-function analysis of the cytokine and NAg domains of IFNβ fusion proteins. (A) Expression supernatants containing designated IFNβ fusion proteins (see Table 2) were added to cultures of BN-GP T cells at designated titrations (x-axis). (B) The IFNβ-EK-NAg-6his or IFNβ-EK-6his fusion genes were inserted into the pCEP4 expression vector (Invitrogen). Inserts were verified by DNA sequencing, and the genes were expressed by transient transfection of HEK293 cells. Independently derived expression systems of IFNβ-EK-NAg-6his or IFNβ-EK-6his (3 each) were compared in the BN-GP T cell anti-proliferative assay. (C) Independently purified preparations (2 each) of each IFN-β fusion protein (IFNβ-NAg from HEK293 cells, IFNβ-NAg from baculovirus, and IFN-β from HEK293 cells) were added at designated concentrations to assess anti-proliferative activity. Two independently purified preparations of the same fusion protein were tested to verify the reliability of activity for each type of protein. The x-axis was based on the exponent of the molar concentration. For example, a concentration of 100 nM was represented as Log [10^−7]=Log10) (10^−7M)=−7 and was plotted by the exponent of −7. For these experiments (A-C), BN-GP T cells were cultured in IL-2. (D) The MBP-specific RsL.11 T cell clone and irradiated splenic APC were cultured with designated concentrations of purified IFNβ-NAg or GPMBP in the presence or absence of the OX6 anti-MHC-II mAb. (E) Five preparations of purified IFNβ-NAg and six preparations of purified IFN-β were tested for antigenic activity in cultures of RsL.11 T cells and irradiated splenic APC.
(§2) The RsL.11 MBP-specific clone was a stable, IL-2 dependent line derived from Lewis rats sensitized with rat MBP in CFA (Mannie, M. D., and M. S. Norris. 2001. MHC class-II-restricted antigen presentation by myelin basic protein-specific CD4+ T cells causes prolonged desensitization and outgrowth of CD4-responders. Cell Immunol 212:51-62). The RsL.11T clone was a transformed variant of the RsL.11 clone. […]

[1] = tested on: MBP-specific RsL.11 T cell clone; assay: Antigen-specific proliferation of RsL.11 T cell clone with irradiated splenic APC; assay type: cell-based, rat
Method: as §1, §2

| Molecule | Biological activity of IFNβ in expression supernatants (BN-GP T cells) | stimulatory activity (antigen-specific proliferation) ([1]; independently purified preparations, RsL.11 T cells and irradiated splenic APC) | cytokine activity relative to HEK293-derived protein (BN-GP T cells; protein purified from baculovirus expression supernatants) | antigenic potency relative to GPMBP ([1]; at low concentrations, concentration eliciting half-maximal response) | peak proliferative response ([1]; compared with GPMBP) |
| --- | --- | --- | --- | --- | --- |
| IFNβ: Rat interferon beta cytokine with enterokinase linker and 6-histidine sequence, no neuroantigen (protein) IDYKQLQFRQSTSIRTCQKLLRQLNGRLNLSYRTDFKIPMEVMHPSQMEKSYTAFAIQVMLQNVFLVFRSNFSSTGWNETIVESLLDELHQQTELLEIILKEKQEERLTWVTSTTTLGLKSYYWRVQRYLKDKKYNSYAWMVVRAEVFRNFSIILRLNRNFQNGDDDDKGHHHHHH | Potent activity | devoid of stimulatory activity | – | – | – |
| IFNβ-NAg: Fusion protein: rat IFNβ, enterokinase linker (GDDDDKG), encephalitogenic 73-87 peptide of guinea pig MBP, C-terminal 6-histidine tag (protein) IDYKQLQFRQSTSIRTCQKLLRQLNGRLNLSYRTDFKIPMEVMHPSQMEKSYTAFAIQVMLQNVFLVFRSNFSSTGWNETIVESLLDELHQQTELLEIILKEKQEERLTWVTSTTTLGLKSYYWRVQRYLKDKKYNSYAWMVVRAEVFRNFSIILRLNRNFQNGDDDDKGPQKSQRSQDENPVVHHHHHH | Potent activity | – | less active | more potent than intact guinea pig myelin basic protein | substantially less than that stimulated by GPMBP |
